In patent US20170008975A1, “Anti-Tissue Inhibitor of Metalloproteinase-4 (Timp-4) Antibodies and Methods of Use Thereof” (LANKENAU INSTITUTE FOR MEDICAL RESEARCH, priority 2014, published 2017):
Entries after “also recorded” stand apart in the source; their conditions may differ.

T1: CD63 (Homo sapiens, UniProt P08962)
T1 construct: endogenous in cells; host or cells: MDA-MB-468
T1 sequence (P08962 1-238): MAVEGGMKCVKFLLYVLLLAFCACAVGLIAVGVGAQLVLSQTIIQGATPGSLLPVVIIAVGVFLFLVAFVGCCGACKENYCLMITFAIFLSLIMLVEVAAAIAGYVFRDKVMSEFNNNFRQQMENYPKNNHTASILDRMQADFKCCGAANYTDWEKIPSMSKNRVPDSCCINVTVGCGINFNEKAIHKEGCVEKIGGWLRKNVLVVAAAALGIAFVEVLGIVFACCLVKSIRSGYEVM


How the values were obtained:
AKT = assay: Western blotting of AKT activation in breast cancer cell cultures; type: cell-based
Text: TIMP-4 appears to induce PI3K/AKT signaling, a critically important cancer cell pathway (Cantley, L. C. (2002) Science, 296:1655-7; Lopez-Knowles et al. (2010) Int. J. Cancer, 126:1121-31), through binding to the tetraspanin CD63 (Jung et al. (2006) EMBO J., 25:3934-42) (FIG. 3). […] Prior to clinical use of Her-2 targeting therapy (Herceptin®), breast cancers that were positive for Her-2 were, like TNBCs, associated with fast growth rate, early recurrence and distant disease resulting in a prognosis of poor survival (Hsieh et al. (2007) Br. J. Cancer, 97:453-7).

[1] = system: triple-negative human breast cancer cell-line MDA-MB-468; assay: Growth of MDA-MB-468 in culture with or without 2 nM TIMP-4; type: cell-based; conditions: normal media supplemented with 2 nM TIMP-4
Procedure: (§1) MDA-MB-468 cell were compared to the CD63 negative SK-Br-3 cells using a modified Boyden chamber to assess invasion in absence (Ctrl) and presence of 2nM TIMP-4 (N=6). […] Clonogenic growth assay (Ayene et al. (2000) Int. J. Radiat. Biol., 76:1523-1531) was used to determine the survival advantage for MDA-MB-468 cells under elevtedTIMP-4 conditions after irradiation (N=3). […] This effect can be prevented by pre-treating the cells with LY294002. […] Further, cells cultured in normal medium began to detach and die as they reached contact inhibition (day 10), whereas cells in TIMP-4-supplemented media continued to survive and grow. Growth augmented by TIMP-4 could be blocked by the addition of the TIMP-4 mAb of the instant invention. Briefly, TIMP-4 mAbs were obtained by delivering a purified glutathione-S-transferase (GST) chimeric protein comprising the human full-length 224 amino acid TIMP-4 (GenBank Accession No. NM_003256.2).

MDA-MB-468 cells [2] = assay: MDA-MB-468 orthotopic xenograft in mammary fat pad of nude mice with TIMP-4 or placebo slow-release pellets; type: in vivo; conditions: TIMP-4 slow-release pellets implanted two weeks before cells
Procedure: FIGS. 7A and B show the effect of modulating TIMP-4 levels in a pilot animal study. Slow-release pellets were used to elevate the TIMP-4 (FIG. 7A) levels in the mammary fatpad (mfp) prior to implanting human TNBC cells. Placebo pellets (FIG. 7B) were used for control conditions. Once tumors were established, twice weekly doses of the anti-TIMP-4 or iso-type control mAb were administered during a two-week period (i.e. in total four treatments). Animals were followed for an additional two weeks post-treatment.
Inguinal mammary fat pads in nude mice were implanted with slow-release pellets (Innovative Research of America, Fla.) containing TIMP-4 to elevate its levels. Two weeks later, MDA-MB-468 cells were mixed with Matrigel™ (LDEV and phenol red free, BD Biosciences) and injected at the same site as an orthotopic xenograft. […] Tumor-bearing mice from both the groups shown were then randomly divided in half and treated by i.p. injection with 1 mg IgG of TIMP-4 mAb (clone 18:4-7) or a matched isotype control IgG2bk (BioXCell, N.H.), in sterile azide-free solution, administered twice weekly for 2 weeks. […] The antibody had no effect on animals without elevated TIMP-4 (FIG. 7B).

MDA-MB-468 cells [3] = assay: Clonogenic growth assay after irradiation; type: cell-based, human; conditions: elevated TIMP-4 conditions, N=3
Procedure: as §1

MDA-MB-468 cell = assay: Modified Boyden chamber invasion, MDA-MB-468; type: cell-based, human; conditions: 2nM TIMP-4 for 24 hours, N=6
Procedure: as §1

[4] = system: CD63 negative SK-Br-3 cells; assay: Modified Boyden chamber invasion, SK-Br-3; type: cell-based, human; conditions: 2nM TIMP-4 for 24 hours, N=6
Procedure: as §1

CD63 = biological target: T1, CD63; assay: Immunoprecipitation and immunofluorescence staining for CD63 binding; conditions: MDA-MB-468, 2nM TIMP-4
Text: Human breast cancer cell-lines expressing the tetraspanin CD63 (Chirco et al. (2006) Cancer Met. Rev., 25:99-113), as determined by FACS analysis, include MDA-MB-468.

| Molecule | activation of AKT (pAkt Ser473) (AKT) | growth rate of MDA-MB-468 [1] | tumor size and growth rate with TIMP-4 pellets versus placebo pellets (MDA-MB-468 cells [2]) | survival of MDA-MB-468 cells after irradiation (MDA-MB-468 cells [3]) | invasiveness of MDA-MB-468 (MDA-MB-468 cell) | invasiveness of SK-Br-3 [4] | binding to CD63 (CD63) |
| --- | --- | --- | --- | --- | --- | --- | --- |
| TIMP-1: member of the mammalian TIMP family, secreted circulating protein | can activate AKT | – | – | – | – | – | – |
| TIMP-4: tissue inhibitor of metalloproteinase-4 protein (R&D Systems, Inc), added to media or given in slow-release pellets (protein, UniProt Q99727 30-224, looked up) Metalloproteinase inhibitor 4: CSCAPAHPQQHICHSALVIRAKISSEKVVPASADPADTEKMLRYEIKQIKMFKGFEKVKDVQYIYTPFDSSLCGVKLEANSQKQYLLTGQVLSDGKVFIHLCNYIEPWEDLSLVQRESLNHHYHLNCGCQITTCYTVPCTISAPNECLWTDWLLERKLYGYQAQHYVCMKHVDGTCSWYRGHLPLRKEFVDIVQP | can activate AKT; also recorded: sufficient to activate the PI3K/AKT pathway | increased growth rate; also recorded: relatively faster growth rate | Differences in tumor size and growth rate | increased survival | increased the invasiveness | did not increase the invasiveness | functional binding partner |
